Experimental data from US20240270846A1 (published 2024).
Residue numbers refer to the chain shown, from its start. Numbers in names are those of the source. Where no end group is shown, it is not given here.

T1: biotin-labeled cynomolgus monkey CD137 fused to human IgG1 Fc fragment (cynomolgus monkey, UniProt Q07011 24-186 (human entry), limits assumed, biotin-labeled)
T1 construct: also called cyno CD137-Fc; not shown: human IgG1 Fc fragment
T1 chain: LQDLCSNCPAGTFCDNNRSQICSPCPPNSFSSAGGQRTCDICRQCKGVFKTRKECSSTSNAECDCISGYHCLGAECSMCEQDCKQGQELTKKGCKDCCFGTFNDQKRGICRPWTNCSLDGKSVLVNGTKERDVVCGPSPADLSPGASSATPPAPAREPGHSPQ

T2: biotin-labeled CD3 epsilon peptide antigen (human, also: biotin-labeled, position not given here)
T2 construct: Peptide of CD3 epsilon; also called CD3 peptide
T2 peptide: QDGNEEMGGITQTPY

B1: DADU01_3#002 (antibody, human IgG1, V domains shown)
VH: QVQLVESGGGLVQPGRSLRLSCAASGFTFSNAWMHWVRQAPGKGLEWVAQIKDKQNLYNAYYAESVKGRFTISRDDSKNSIYLQMNSLKTEDTAVYYCHYVHYASASTVLPAFGVDAWGQGTTVTVSS
VL: DIVMTQSPLSLPVTPGEPASISCRSSQSLVHSNRNTYLHWYQQKPGQAPRLLIYKVSNRFSGVPDRFSGSGSGTDFTLKISRVEAEDVGVYYCGQGTQVPYTFGQGTKLEIKR
notes: also called dBBDu124
B2: DADU01_3#018 (antibody, human IgG1, V domains shown)
VH: B1 VH with K54R, Q55A, L57S, E64P, A104S, S105A, V109L, A112S
VL: B1 VL
notes: also called dBBDu123
B3: DXDU01_3#019 (antibody, human IgG1, V domains shown)
VH: QVQLVESGGGLVQPGRSLRLSCAASGFTFSIAWMHWVRQAPGKGLEWVAQIKDKVNGYTAYYAESVKGRFTISRDDSKNSIYLQMNSLKTEDTAVYYCRYVHYAAYYDVLGYGGVDAWGQGTTVTVSS
VL: B1 VL
notes: also called dBBDu125
B4: DXDU01_3#051 (antibody, human IgG1, V domains shown)
VH: B1 VH with K54R, Q55G, N56Q, L57Q, E64P, T108S, A112G, F113Y
VL: B1 VL
notes: also called dBBDu127
B5: DXDU01_3#094 (antibody, human IgG1, V domains shown)
VH: B1 VH with Q55G, L57A, N59A, E64P, S107A, T108G, V109G, A112G
VL: B1 VL
notes: also called dBBDu121
B6: DADU01_3#001 (antibody, human IgG1, V domains shown)
VH: B3 VH with K54R, G57A, T59E, E64P, A105S, V109L
VL: B1 VL
notes: also called dBBDu_126; dBBDu126
B7: anti-human CD137 antibody described in WO2005/035584A1 (abbreviated as B) (antibody, V domains shown)
VH: QVQLQQWGAGLLKPSETLSLTCAVYGGSFSGYYWSWIRQSPEKGLEWIGEINHGGYVTYNPSLESRVTISVDTSKNQFSLKLSSVTAADTAVYYCARDYGPGNYDWYFDLWGRGTLVTVSS
VL: EIVLTQSPATLSLSPGERATLSCRASQSVSSYLAWYQQKPGQAPRLLIYDASNRATGIPARFSGSGSGTDFTLTISSLEPEDFAVYYCQQRSNWPPALTFGGGTKVEIK
notes: Control antibody; also called control anti-CD137 antibody
B8: L chain one-amino acid altered form of GLS3000, G to Y at Kabat position 89 (one-arm antibody: CE115HA000-pE22Hh / Kn010G3 / altered GLS3000-kappa) (antibody, human IgG1, kappa, L234A L235A, N297A, name in Kabat numbering)
heavy: QVQLVESGGGVVQPGRSLRLSCAASGFTFSNAWMHWVRQAPGKGLEWVAQIKAKSNNYATYYAESVKGRFTISRDDSKNSLYLQMNSLKTEDTAVYYCRYVHYGAYYGVDAWGQGTTVTVSSASTKGPSVFPLAPSSKSTSGGTAALGCLVKDYFPEPVTVSWNSGALTSGVHTFPAVLQSSGLYSLSSVVTVPSSSLGTQTYICNVNHKPSNTKVDKKVEPKSCDKTHTCPPCPAPEAAGGPSVFLFPPKPKDTLMISRTPEVTCVVVDVSHEDPEVKFNWYVDGVEVHNAKTKPREEQYASTYRVVSVLTVLHQDWLNGKEYKCKVSNKALPAPIEKTISKAKGQPREPQVYTLPPSRCELTKNQVSLSCAVKGFYPSDIAVEWESNGQPENNYKTTPPVLDSDGSFFLVSKLTVDKSRWQQGNVFSCSVMHEALHNHYTQKSLSLSPDYKDDDDK
chain: EPKSSDKTHTCPPCPAPELLGGPSVFLFPPKPKDTLMISRTPEVTCVVVDVSHEDPEVKFNWYVDGVEVHNAKTKPREEQYNSTYRVVSVLTVLHQDWLNGKEYKCKVSNKALPAPIEKTISKAKGQPREPQVCTLPPSRDELTKNQVSLWCLVKGFYPSDIAVEWESNGQPENNYKTTPPVLDSDGSFFLYSKLTVDKSRWQQGNVFSCSVMHEALHNRYTQKSLSLSP
light: DIVMTQSPLSLPVTPGEPASISCRSSQSLVHSNRNTYLHWYQQKPGQAPRLLIYKVSNRFSGVPDRFSGSGSGTDFTLKISRVEAEDVGVYYCYQGTQVPYTFGQGTKLEIKRTVAAPSVFIFPPSDEQLKSGTASVVCLLNNFYPREAKVQWKVDNALQSGNSQESVTEQDSKDSTYSLSSTLTLSKADYEKHKVYACEVTHQGLSSPVTKSFNRGEC
notes: One-arm antibody (IgG lacking one Fab); also called GLS3000 G89Y
B9: L chain one-amino acid altered form of GLS3000, G to Y at Kabat position 91 (one-arm antibody: CE115HA000-pE22Hh / Kn010G3 / altered GLS3000-kappa) (antibody, human IgG1, kappa, L234A L235A, N297A, name in Kabat numbering)
heavy: B8 heavy
chain: B8 chain
light: B8 light with Y94G, G96Y
notes: One-arm antibody (IgG lacking one Fab); also called GLS3000 G91Y
B10: L chain one-amino acid altered form of GLS3000, Q to Y at Kabat position 90 (one-arm antibody: CE115HA000-pE22Hh / Kn010G3 / altered GLS3000-kappa) (antibody, human IgG1, kappa, L234A L235A, N297A, name in Kabat numbering)
heavy: B8 heavy
chain: B8 chain
light: B8 light with Y94G, Q95Y
notes: One-arm antibody (IgG lacking one Fab); also called GLS3000 Q90Y
B11: L chain one-amino acid altered form of GLS3000, Q to Y at Kabat position 93 (one-arm antibody: CE115HA000-pE22Hh / Kn010G3 / altered GLS3000-kappa) (antibody, human IgG1, kappa, L234A L235A, N297A, name in Kabat numbering)
heavy: B8 heavy
chain: B8 chain
light: B8 light with Y94G, Q98Y
notes: One-arm antibody (IgG lacking one Fab); also called GLS3000 Q93Y
B12: L chain one-amino acid altered form of GLS3000, T to Y at Kabat position 92 (one-arm antibody: CE115HA000-pE22Hh / Kn010G3 / altered GLS3000-kappa) (antibody, human IgG1, kappa, L234A L235A, N297A, name in Kabat numbering)
heavy: B8 heavy
chain: B8 chain
light: B8 light with Y94G, T97Y
notes: One-arm antibody (IgG lacking one Fab); also called GLS3000 T92Y
B13: L chain one-amino acid altered form of GLS3000, V to Y at Kabat position 94 (one-arm antibody: CE115HA000-pE22Hh / Kn010G3 / altered GLS3000-kappa) (antibody, human IgG1, kappa, L234A L235A, N297A, name in Kabat numbering)
heavy: B8 heavy
chain: B8 chain
light: B8 light with Y94G, V99Y
notes: One-arm antibody (IgG lacking one Fab); also called GLS3000 V94Y
B14: DXDU01_3#072 (antibody, human IgG1, V domains shown)
VH: B1 VH with K54R, Q55S, N56Q, N59A, E64P, P111G, F113Y
VL: DIVMTQSPLSLPVTPGEPASISCRSSQSLVHSNRNTYLHWYQQKPGQAPRLLIYKVSNRFSGVPDRFSGSGSGTDFTLKISRVEAEDVGVYYCGQGTQVPYTFGQGTKLEIK
notes: IgG: VH joined to human IgG1 CH1-Fc; also called dBBDu122
B15: DXDU01_3#094 (antibody, human IgG1, V domains shown)
VH: B1 VH with Q55G, L57A, N59A, E64P, S107A, T108G, V109G, A112G
VL: B14 VL
notes: IgG: VH joined to human IgG1 CH1-Fc; also called dBBDu121
B16: DADU01_3#001 (antibody, human IgG1, V domains shown)
VH: B3 VH with K54R, G57A, T59E, E64P, A105S, V109L
VL: B14 VL
notes: IgG: VH joined to human IgG1 CH1-Fc; also called dBBDu_126; dBBDu126

Target: T3, biotin-labeled human CD137 fused to human IgG1 Fc fragment (human CD137-Fc) (human, biotin-labeled)
T3 construct: also called biotin-human CD137-Fc
Experiment: competitive bead ELISA, biotin-human CD137-Fc on beads, 100 ng IgG, control competitor free human Fc 62.5 pmol

Binder | ELISA signal with Free Fc 62.5 pmol
B1 | 155000
B2 | 117000
B3 | 172000
B4 | 128000
B5 | 108000
B6 | 81000
B7 | 184000

Target: T4, CD3 epsilon homodimer protein (UniProt P07766 23-126)
T4 construct: also called CD3 (CD3 epsilon)
Experiment: SPR, Biacore T200, CD3 epsilon homodimer immobilized on CM4, one-arm antibody as analyte, 25 degrees C

Binder | ratio of amounts bound (Z = Y/X) against the unaltered GLS3000 antibody
B8 | 1.19
B9 | 0.17
B10 | 0.17
B11 | 0.87
B12 | 0.33
B13 | 0.63

Target: T3, biotin-labeled human CD137 fused to …
Experiment: competitive bead ELISA, biotin-human CD137-Fc on beads; free CD3e 62.5 pmol against free Fc 62.5 pmol

Binder | Signal decrease
B1 | 93.6%
B2 | 92.3%
B3 | 92.5%
B4 | 91.6%
B5 | 91.1%
B6 | 81.3%
B7 | 0.94%

Target: T1, biotin-labeled cynomolgus monkey CD137 …
Experiment: bead ELISA; RLU on cyno CD137-Fc divided by RLU on human Fc

Binder | S/N ratio cyno CD137-Fc/Fc
B14 | 1.56
B15 | 8.09
B16 | 0.687

Target: T1, biotin-labeled cynomolgus monkey CD137 …
Experiment: bead ELISA (chemiluminescence), purified IgG on biotin labeled cyno CD137-Fc on streptavidin beads

Binder | RLU
B14 | 3350 RLU
B15 | 19100 RLU
B16 | 1210 RLU

Target: T2, biotin-labeled CD3 epsilon peptide …
Experiment: bead ELISA, biotin-CD3 epsilon peptide on streptavidin beads, 100 ng IgG

Binder | RLU, CD3 peptide | S/N ratio CD3 peptide/non coating
B1 | 174000 RLU | 156
B2 | 182000 RLU | 149
B3 | 191000 RLU | 161
B4 | 169000 RLU | 145
B5 | 165000 RLU | 141
B6 | 198000 RLU | 146

Target: T5, biotin-labeled human CD137 fused to human IgG1 Fc fragment (human, biotin-labeled)
T5 construct: also called human CD137-Fc; biotin-human CD137-Fc
Experiment: bead ELISA; RLU on human CD137-Fc divided by RLU on human Fc

Binder | S/N ratio human CD137-Fc/Fc
B14 | 6.58
B15 | 10.2
B16 | 54.1

Target: T3, biotin-labeled human CD137 fused to …
Experiment: competitive bead ELISA, biotin-human CD137-Fc on beads, 100 ng IgG, competitor free CD3 epsilon peptide 62.5 pmol

Binder | ELISA signal with Free CD3e 62.5 pmol
B1 | 9970
B2 | 9020
B3 | 12800
B4 | 10800
B5 | 9660
B6 | 15100
B7 | 183000

Target: T5, biotin-labeled human CD137 fused to …
Experiment: bead ELISA (chemiluminescence), purified IgG on biotin labeled human CD137-Fc on streptavidin beads

Binder | RLU
B14 | 14100 RLU
B15 | 24200 RLU
B16 | 95300 RLU
